Results: article PMC9605926, “Safety of [^177Lu]Lu-NeoB treatment: a preclinical study characterizing absorbed dose and acute, early, and late organ toxicity” (European Journal of Nuclear Medicine and Molecular Imaging, 2022)
Where “and” joins values, the source holds several entries; their conditions need not be identical. Identical values can stand only once.

Columns and labels:
healthy Balb/c mice [1] = test: Toxicity study, histopathology (5-point grade); 3 i.v. injections at 7-day interval; control group 2 = 3× 1200 pmol [175Lu]Lu-NeoB; treatment groups 1/2/3 = 3× 40 MBq/400 pmol, 80 MBq/800 pmol, 120 MBq/1200 pmol [177Lu]Lu-NeoB; type: in vivo, mouse
Experimental: (§1) Five different experimental groups (10 male and 10 female healthy animals per group; n = 100) were included in the radiotoxicity study and treated as follows: control group 1: 3 × vehicle (PBS + kolliphor HS 15 (1 mg/mL)); control group 2: 3 × 1200 pmol [^175Lu]Lu-NeoB; treatment group 1: 3 × 40 MBq/400 pmol [^177Lu]Lu-NeoB; treatment group 2: 3 × 80 MBq/800 pmol [^177Lu]Lu-NeoB; and treatment group 3: 3 × 120 MBq/1200 pmol [^177Lu]Lu-NeoB.
(§2) Animals received 3 injections with an interval of 7 days between each injection.
At 5, 19, and 43 weeks after the first injection, 3–4 male and 3–4 female animals of each group were sacrificed by isoflurane overdose after a blood sample was taken by retro-orbital puncture. Hereafter, the axillary lymph nodes, mesenteric lymph nodes, skin, mammary fat pad, sternum, pancreas, adrenal glands, kidneys, spleen, liver, gallbladder, stomach, duodenum, jejunum, ileum, caecum, colon, rectum, testes (M), epididymis (M), seminal vesicles (M), prostate gland (M), ovaries (F), oviducts (F), uterus-cervix (F), vagina (F), bladder, ureters, sciatic nerve, skeletal muscle, femur, lungs, trachea, esophagus, thymus, thyroid gland, aorta, heart, brain, pituitary gland, eyes, harderian glands, tongue, spinal column, and the tail were collected and analyzed macroscopically. All organs and tissues were formalin fixed (4% buffered formaldehyde) and shipped to the European Research Biology Centre (ERBC, Pomezia, Rome, Italy) where histological sampling, embedding, sectioning (5 µm thick), and hematoxylin–eosin staining were performed according to standard guidelines. All organs and tissues were analyzed microscopically by an experienced pathologist. A 5-point grading scale was used: 1: minimal change, 2: mild change, 3: moderate change, 4: marked change, 5: severe change.

healthy Balb/c mice [2] = test: Toxicity study, clinical chemistry; type: in vivo, mouse; conditions: control group 2, 5, 11, 19, 30, 43 wk, mean±SD
Experimental: as §1, §2
In addition, the following clinical chemistry parameters were measured: sodium, potassium chloride, calcium, glucose, creatinine, urea, alanine aminotransferase (ALT), aspartate aminotransferase (AST), alkaline phosphatase (ALP), amylase, lipase, and cholesterol, using the Roche/Hitachi cobas c systems according to the standard protocol. To reach the volume necessary for measuring the clinical chemistry parameters, the blood plasma was diluted 3–5 times with demineralized water.

healthy Balb/c mice [3] = test: Toxicity study, hematology (same groups as A3); type: in vivo, mouse; conditions: control group 2, 5, 11, 19, 30, 43 wk, mean±SD
Experimental: as §1, §2
Throughout the study, the animals were observed daily to check for physical signs of toxicity and signs of discomfort, and animals were weighed 2–3 times per week. Furthermore, at week -1, 5, 11, 19, 30, and 43, blood samples were collected by submandibular puncture from all animals that were in the study at that time point. All blood samples were analyzed for hematological parameters (hematocrit; hemoglobin; red blood cell count; white blood cell count; hemoglobin; mean cell hemoglobin concentration; mean cell volume; platelet count) on the scilVet abc + counter (Covetrus).

patients = conditions: human, in vivo; cited from earlier work
From the text: Due to the very small size of murine kidneys and the long range of β^− particles, the murine kidneys receive a more homogeneous radiation dose compared to the much larger human kidneys. […] These ... || Bone marrow toxicity is a concern when using targeted radionuclide therapy with, for example, lutetium-177 labeled peptides with a long circulation time. Here, we found a decrease in WBC counts 5 weeks after radioligand injection in treatment group 3, which received bone marrow doses between 0.20 and 0.36 Gy. Although not clear from our histopathological analysis, this finding could potentially indicate bone marrow suppression. However, it should also be noted that the brief drop in WBC counts may have (partly) been caused by the reported urinary bladder inflammation. The observed ...

[4] = female wk 43, control group 2, grade 1
[5] = female wk 43, control group 2, grade 2
[6] = male wk 5, control group 2, grade 1
[7] = male wk 5, control group 2, grade 2
[8] = male wk 19, control group 2, grade 1
[9] = male wk 43, control group 2, grade 1
[10] = male wk 43, control group 2, grade 2

Compound: CC(C)CC(CC(C)C)NC(=O)[C@H](Cc1cnc[nH]1)NC(=O)CNC(=O)[C@@H](NC(=O)[C@H](C)NC(=O)[C@H](Cc1c[nH]c2ccccc12)NC(=O)[C@H](CCC(N)=O)NC(=O)[C@@H](Cc1ccccc1)NC(=O)COCC(=O)Nc1ccc(CNC(=O)CN2CCN(CC(=O)O)CCN(CC(=O)O)CCN(CC(=O)O)CC2)cc1)C(C)C [[^175Lu]Lu-NeoB]
- Treatment-related toxicological effects (healthy Balb/c mice [1]; control group 2, 3× 1200 pmol, male and female): did not show any treatment-related toxicological effects
- Adrenal glands subcapsular cell hyperplasia, incidence (healthy Balb/c mice [1]; female wk 5, control group 2, grade 1): 2/3
- Brain artifacts, incidence (healthy Balb/c mice [1]; female wk 5, control group 2, grade 3): 1/3
- Adrenal glands subcapsular cell hyperplasia, incidence (healthy Balb/c mice [1]; female wk 19, control group 2, grade 1): 1/3
- Adrenal glands subcapsular cell hyperplasia, incidence (healthy Balb/c mice [1]; female wk 19, control group 2, grade 2): 2/3
- Adrenal glands subcapsular cell hyperplasia, incidence (healthy Balb/c mice [1]; [4]): 1/4
- Liver inflammatory cell foci, incidence (healthy Balb/c mice [1]; [4]): 1/4
- Adrenal glands subcapsular cell hyperplasia, incidence (healthy Balb/c mice [1]; [5]): 2/4
- Pancreas inflammatory cell foci, incidence (healthy Balb/c mice [1]; [5]): 1/4
- Uterus endometrial hyperplasia, incidence (healthy Balb/c mice [1]; female wk 43, control group 2, grade 4): 1/4
- Adrenal glands accessory cortical tissue, incidence (healthy Balb/c mice [1]; [6]): 1/3
- Adrenal glands subcapsular cell hyperplasia, incidence (healthy Balb/c mice [1]; [6]): 1/3
- Adrenal glands subcapsular cell hyperplasia, incidence (healthy Balb/c mice [1]; [7]): 1/3
- Spleen extramedullary haematopoiesis, incidence (healthy Balb/c mice [1]; [7]): 1/3
- Adrenal glands subcapsular cell hyperplasia, incidence (healthy Balb/c mice [1]; [8]): 2/3
- Pancreas inflammatory cell foci, incidence (healthy Balb/c mice [1]; [8]): 1/3
- Urinary bladder proteinaceous plug, incidence (healthy Balb/c mice [1]; male wk 19, control group 2, grade 2): 1/3
- Adrenal glands subcapsular cell hyperplasia, incidence (healthy Balb/c mice [1]; [9]): 3/4
- Kidneys inflammatory cell foci, incidence (healthy Balb/c mice [1]; [9]): 1/4
- Testes germ cell depletion, incidence (healthy Balb/c mice [1]; [9]): 1/4
- Adrenal glands subcapsular cell hyperplasia, incidence (healthy Balb/c mice [1]; [10]): 1/4
- Pancreas inflammatory cell foci, incidence (healthy Balb/c mice [1]; [10]): 1/4
- Kidneys cyst/s, incidence (healthy Balb/c mice [1]; male wk 43, control group 2, grade 3): 1/4
- Alk. Phosphatase (healthy Balb/c mice [2]; female): 100.20 ± 6.96 U/L and 84.43 ± 7.63 U/L and 73.57 ± 9.88 U/L and 86.25 ± 8.54 U/L and 71.25 ± 14.93 U/L
- Urea (healthy Balb/c mice [2]; female): 7.83 ± 0.88 mmol/L and 7.07 ± 1.19 mmol/L and 6.14 ± 0.38 mmol/L and 7.00 ± 0.00 mmol/L and 6.17 ± 0.76 mmol/L
- Alk. Phosphatase (healthy Balb/c mice [2]; male): 117.70 ± 8.30 U/L and 100.29 ± 7.72 U/L and 62.50 ± 6.45 U/L and 80.00 ± 7.07 U/L and 67.50 ± 2.89 U/L
- Urea (healthy Balb/c mice [2]; male): 7.17 ± 0.64 mmol/L and 5.61 ± 0.86 mmol/L and 5.75 ± 0.65 mmol/L and 6.75 ± 1.55 mmol/L and 8.00 ± 2.12 mmol/L
- WBC (healthy Balb/c mice [3]; female): 7.27 ± 1.51 103/mm3 and 8.51 ± 2.34 103/mm3 and 6.74 ± 3.19 103/mm3 and 10.38 ± 2.86 103/mm3 and 7.40 ± 0.72 103/mm3
- WBC (healthy Balb/c mice [3]; male): 7.67 ± 1.50 103/mm3 and 8.37 ± 2.67 103/mm3 and 9.53 ± 2.84 103/mm3 and 9.80 ± 2.25 103/mm3 and 6.70 ± 2.71 103/mm3

Compound: [^177Lu]Lu-DOTATATE
- Average absorbed bone marrow dose (patients): 2 Gy
- Average kidney dose in patients (patients): 20.1 ± 4.9 Gy
- Minimal to mild nephrotoxicity, cases (patients): 6/79
